Reference: US20250188154A1
Read-outs that look alike come from different tables or passages of the source.

How the values were obtained:
[1] = molecular target: SARS-CoV-2 Spike-2P stabilized S ectodomain trimer (SARS-CoV-2) (UniProt P0DTC2)
[2] = molecular target: SARS-CoV-2 2AA MA virus spike (SARS-CoV-2) (UniProt P0DTC2); assay: cell-based or functional assay
[3] = molecular target: SARS-CoV-2 B.1.1.7 live virus spike (SARS-CoV-2) (UniProt P0DTC2); assay: cell-based or functional assay
[4] = molecular target: SARS-CoV-2 B.1.351 live virus spike (SARS-CoV-2) (UniProt P0DTC2); assay: cell-based or functional assay
[5] = molecular target: SARS-CoV-2 spike on live virus (Isolate USA-WA1/2020) (SARS-CoV-2) (UniProt P0DTC2); assay: cell-based or functional assay
[6] = molecular target: SARS-CoV-2 Spike-2P stabilized S ectodomain trimer (SARS-CoV-2) (UniProt P0DTC2); assay: ACE2 blocking, ELISA-based assay (Genscript)

Row | Substance | IC50 [1] | IC80 [1] | live virus neutralization IC50 [2] | live virus neutralization IC50 [3] | live virus neutralization IC50 [4] | SARS-CoV-2 neutralization IC50 [5] | SARS-CoV-2 neutralization IC80 [5] | SARS-CoV-2 neutralization IC90 [5] | SARS-CoV-2 neutralization Minimal Effective conc. [5] | Bioqual PRNT IC50 [5] | Bioqual PRNT IC90 [5] | Duke RBL PRNT IC50 [5] | Duke RBL PRNT IC90 [5] | IC50 [6]
1 | DH1047 (antibody) | 0.078 µg/mL | 0.567 µg/mL | 0.397 µg/mL | 0.081 µg/mL | 0.111 µg/mL | 0.124 µg/mL | 0.666 µg/mL | 1.77 µg/mL | 1.1 µg/mL |  |  |  |  | 
2 | DH1042 (antibody) | < 0.2 µg/mL | 0.371 µg/mL |  |  |  | 0.071 µg/mL | 0.269 µg/mL | 0.578 µg/mL | 0.28 µg/mL | 0.156 µg/mL | 0.625 µg/mL | 0.073 µg/mL | 0.625 µg/mL | < 0.2 µg/mL
